Assay results taken from paper PMC4689412.

Target: AP-1 clathrin adaptor complex (UniProt O43747)
Test: GST pull-down, Western blot with anti-γ-adaptin, densitometry
Conditions: HeLa cell lysates; GST-fusions immobilized on GSH-sepharose beads; parent: est. 100; read off a plot

UniProt O43747, sequence (O43747 whole entry, looked up, one chain of several): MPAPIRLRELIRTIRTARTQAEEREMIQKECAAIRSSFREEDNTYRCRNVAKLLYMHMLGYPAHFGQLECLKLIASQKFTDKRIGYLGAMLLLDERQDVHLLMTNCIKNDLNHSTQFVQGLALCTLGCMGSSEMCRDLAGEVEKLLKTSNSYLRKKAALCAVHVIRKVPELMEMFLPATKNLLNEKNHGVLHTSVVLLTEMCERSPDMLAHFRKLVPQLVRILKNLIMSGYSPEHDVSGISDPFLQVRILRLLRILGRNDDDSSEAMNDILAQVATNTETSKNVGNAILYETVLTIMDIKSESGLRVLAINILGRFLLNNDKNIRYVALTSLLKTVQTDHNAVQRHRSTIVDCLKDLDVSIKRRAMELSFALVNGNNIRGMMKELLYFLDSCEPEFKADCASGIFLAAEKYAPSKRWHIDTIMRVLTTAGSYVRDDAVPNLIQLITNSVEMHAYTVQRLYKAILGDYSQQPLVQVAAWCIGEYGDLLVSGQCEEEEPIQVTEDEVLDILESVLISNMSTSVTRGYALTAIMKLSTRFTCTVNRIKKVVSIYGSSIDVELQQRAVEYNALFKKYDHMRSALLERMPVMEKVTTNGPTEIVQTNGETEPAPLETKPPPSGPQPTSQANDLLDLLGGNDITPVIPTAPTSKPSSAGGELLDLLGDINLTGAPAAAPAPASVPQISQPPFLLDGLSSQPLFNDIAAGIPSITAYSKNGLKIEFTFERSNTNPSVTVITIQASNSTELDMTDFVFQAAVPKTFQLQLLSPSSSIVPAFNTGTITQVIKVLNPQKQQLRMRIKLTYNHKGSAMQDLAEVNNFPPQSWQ

## GST-Nef, wild-type HIV-1 NL4.3 Nef fused to glutathione-S-transferase L164A; L165A
  percent of parent: 17 % of control

## GST-Nef, wild-type HIV-1 NL4.3 Nef fused to glutathione-S-transferase P129A; G130A
  percent of parent: 74 % of control

## GST-Nef, wild-type HIV-1 NL4.3 Nef fused to glutathione-S-transferase P131A; G132A
  percent of parent: 75 % of control
